# Measured values taken from patent US20260241049A1, “Radiopharmaceutical Compositions Targeting Glypican-3 and Uses Thereof” (RayzeBio, Inc., priority 2023, published 2026).
# Starred links: 1 amine or outer side, 2 acyl side, 3 side chain; linkers in the order of their positions; H or OH if unused. Positions of bridges follow the written chain, without caps; N, C: chain ends. Non-standard residues stand in square brackets, D forms with d. Groups on a side chain read outwards from the residue. Primed or numbered codes have the meaning given here. *: point of attachment. MeHseMe″ = (2S)-4-methoxy-2-(methylamino)butanoic acid (N-methyl-O-methyl-L-homoserine), COCC[C@@H](C(=O)[*:2])N(C)[*:1]; F4aao = 4-(carboxymethoxy)-L-phenylalanine, O=C([C@H](Cc1ccc(OCC(=O)[*:3])cc1)N[*:1])[*:2]; F4aao(4) = 4-(carboxymethoxy)phenylalanine, O=C([C@H](Cc1ccc(OCC(=O)[*:3])cc1)N[*:1])[*:2]; MeHseMe = N-methyl-O-methyl-L-homoserine, COCC[C@@H](C(=O)[*:2])N(C)[*:1]; SulfoCy5 = sulfo-Cyanine5 hexanoyl dye on the side-chain amine; TMe = O-methyl-L-threonine, CO[C@H](C)[C@H](N[*:1])C(=O)[*:2]; NMeAla(isoquinolin-7-yl) = CN[C@@H](Cc1ccc2ccncc2c1)C(=O)O; PEG12 = NCCOCCOCCOCCOCCOCCOCCOCCOCCOCCOCCOCCOCCC(=O)O; 3Pal(6-Ph) = N[C@@H](Cc1ccc(-c2ccccc2)nc1)C(=O)O; Biotin = O=C1N[C@H]2[C@H](CS[C@H]2CCCCC(=O)*)N1; Phe(4-COOH) = N[C@@H](Cc1ccc(C(=O)O)cc1)C(=O)O; d(tBuAla) = CC(C)(C)C[C@@H](N)C(=O)O; NMeI = CC[C@H](C)[C@H](NC)C(=O)O; NMeQ = CN[C@@H](CCC(N)=O)C(=O)O; NMeK = CN[C@@H](CCCCN)C(=O)O; NMeC = CN[C@@H](CS)C(=O)O
# Molecular target: T1, Human Glypican3-Fc (ACRO Biosystems, GP3-H5258) (human, UniProt P51654 25-559)
# T1 construct: Bought fusion protein, captured in Methods B-2, B-3 and B-4; Catalogue number is printed only in Method B-2; not shown: Fc part of the bought fusion
# Assay: SPR (Biacore T200), Method B-3: Glypican3-Fc captured on Protein A chip, peptide as analyte
# Method: A Protein A sensor chip (Cytiva) was inserted into a Biacore T200 (Cytiva), priming was performed three times with a running buffer: HBS-P+, pH 7.4 (Cytiva), and equilibration was carried out at a flow rate of 30 μL/min. Glypican3-Fc was allowed to react for 60 seconds at a flow rate of 10 μL/min. After capturing human Glypican3-Fe, a peptide solution prepared to 10 mM in DMSO solution was diluted with a running buffer to a final concentration of 10 μM. […] Using the above samples, peptide kinetics for Glypican3 was obtained by SPR measurement. Kinetics evaluation of Glypican3 was performed by SPR measurements at a flow rate of 10 LL/min, setting the association time to 120 seconds and the disassociation time to 600 seconds.
# The obtained data by Method B-1, Method B-2, Method B-3 and Method B-4 were analyzed by follow. Single Cycle Kinetics was used as the kinetics evaluation model, and curve fitting was performed using Biacore T200 Evaluation Software Version 3.0 (Cytiva).
row,Binder,Kd
1,{CH2CO}-[NMeK][MeHseMe″]D[NMeQ][Phe(4-COOH)][TMe]I[F4aao][NMeAla(isoquinolin-7-yl)]G[3Pal(6-Ph)][NMeC]-NH2 (thioether N-12; SMILES CC[C@H](C)[C@@H]1NC(=O)[C@H]([C@@H](C)OC)NC(=O)[C@H](Cc2ccc(C(=O)O)cc2)NC(=O)[C@H](CCC(N)=O)N(C)C(=O)[C@H](CC(=O)O)NC(=O)[C@H](CCOC)N(C)C(=O)[C@H](CCCCN)N(C)C(=O)CSC[C@@H](C(N)=O)N(C)C(=O)[C@H](Cc2ccc(-c3ccccc3)nc2)NC(=O)CNC(=O)[C@H](Cc2ccc3ccncc3c2)N(C)C(=O)[C@H](Cc2ccc(OCC(=O)O)cc2)NC1=O) [Macrocyclic peptide of Example 2-59 (SEQ ID No. 63)],1.55 nM
2,{CH2CO}-[NMeK][NMeI]D[NMeQ][Phe(4-COOH)][TMe]IY[NMeAla(isoquinolin-7-yl)]G[3Pal(6-Ph)][NMeC]-NH2 (thioether N-12; SMILES CC[C@H](C)[C@@H]1NC(=O)[C@H]([C@@H](C)OC)NC(=O)[C@H](Cc2ccc(C(=O)O)cc2)NC(=O)[C@H](CCC(N)=O)N(C)C(=O)[C@H](CC(=O)O)NC(=O)[C@H]([C@@H](C)CC)N(C)C(=O)[C@H](CCCCN)N(C)C(=O)CSC[C@@H](C(N)=O)N(C)C(=O)[C@H](Cc2ccc(-c3ccccc3)nc2)NC(=O)CNC(=O)[C@H](Cc2ccc3ccncc3c2)N(C)C(=O)[C@H](Cc2ccc(O)cc2)NC1=O) [Macrocyclic peptide of Example 2-60 (SEQ ID No. 62)],0.23 nM
3,{CH2CO}-[NMeK](His)[NMeI]D[NMeQ][Phe(4-COOH)]II[F4aao(4)][NMeAla(isoquinolin-7-yl)]G[3Pal(6-Ph)][NMeC]-NH2 (thioether N-12; SMILES CC[C@H](C)[C@@H]1NC(=O)[C@H](Cc2ccc(C(=O)O)cc2)NC(=O)[C@H](CCC(N)=O)N(C)C(=O)[C@H](CC(=O)O)NC(=O)[C@H]([C@@H](C)CC)N(C)C(=O)[C@H](CCCCNC(=O)[C@@H](N)Cc2c[nH]cn2)N(C)C(=O)CSC[C@@H](C(N)=O)N(C)C(=O)[C@H](Cc2ccc(-c3ccccc3)nc2)NC(=O)CNC(=O)[C@H](Cc2ccc3ccncc3c2)N(C)C(=O)[C@H](Cc2ccc(OCC(=O)O)cc2)NC(=O)[C@H]([C@@H](C)CC)NC1=O) [Macrocyclic peptide of Example 10-1 (SEQ ID No. 34)],0.51 nM
4,{CH2CO}-[NMeK](dF)[NMeI]D[NMeQ][Phe(4-COOH)]II[F4aao(4)][NMeAla(isoquinolin-7-yl)]G[3Pal(6-Ph)][NMeC]-NH2 (thioether N-12; SMILES CC[C@H](C)[C@@H]1NC(=O)[C@H](Cc2ccc(C(=O)O)cc2)NC(=O)[C@H](CCC(N)=O)N(C)C(=O)[C@H](CC(=O)O)NC(=O)[C@H]([C@@H](C)CC)N(C)C(=O)[C@H](CCCCNC(=O)[C@H](N)Cc2ccccc2)N(C)C(=O)CSC[C@@H](C(N)=O)N(C)C(=O)[C@H](Cc2ccc(-c3ccccc3)nc2)NC(=O)CNC(=O)[C@H](Cc2ccc3ccncc3c2)N(C)C(=O)[C@H](Cc2ccc(OCC(=O)O)cc2)NC(=O)[C@H]([C@@H](C)CC)NC1=O) [Macrocyclic peptide of Example 10-2 (SEQ ID No. 41)],0.54 nM
5,"{CH2CO}-[NMeK][MeHseMe″]D[NMeQ][Phe(4-COOH)][TMe]IY[NMeAla(isoquinolin-7-yl)]G[3Pal(6-Ph)][NMeC]-NH2 (thioether N-12; SMILES CC[C@H](C)[C@@H]1NC(=O)[C@H]([C@@H](C)OC)NC(=O)[C@H](Cc2ccc(C(=O)O)cc2)NC(=O)[C@H](CCC(N)=O)N(C)C(=O)[C@H](CC(=O)O)NC(=O)[C@H](CCOC)N(C)C(=O)[C@H](CCCCN)N(C)C(=O)CSC[C@@H](C(N)=O)N(C)C(=O)[C@H](Cc2ccc(-c3ccccc3)nc2)NC(=O)CNC(=O)[C@H](Cc2ccc3ccncc3c2)N(C)C(=O)[C@H](Cc2ccc(O)cc2)NC1=O, also called macrocyclic peptide 2b) [Macrocyclic peptide of Example B1 (SEQ ID No. 45)]",0.2 nM
6,{CH2CO}-[NMeK](d(tBuAla))[NMeI]D[NMeQ][Phe(4-COOH)]II[F4aao][NMeAla(isoquinolin-7-yl)]G[3Pal(6-Ph)][NMeC]-NH2 (thioether N-12; SMILES CC[C@H](C)[C@@H]1NC(=O)[C@H](Cc2ccc(C(=O)O)cc2)NC(=O)[C@H](CCC(N)=O)N(C)C(=O)[C@H](CC(=O)O)NC(=O)[C@H]([C@@H](C)CC)N(C)C(=O)[C@H](CCCCNC(=O)[C@H](N)CC(C)(C)C)N(C)C(=O)CSC[C@@H](C(N)=O)N(C)C(=O)[C@H](Cc2ccc(-c3ccccc3)nc2)NC(=O)CNC(=O)[C@H](Cc2ccc3ccncc3c2)N(C)C(=O)[C@H](Cc2ccc(OCC(=O)O)cc2)NC(=O)[C@H]([C@@H](C)CC)NC1=O) [Macrocyclic peptide of Example B8 (SEQ ID No. 42)],0.57 nM
7,{CH2CO}-[NMeK](dE)[NMeI]D[NMeQ][Phe(4-COOH)]II[F4aao][NMeAla(isoquinolin-7-yl)]G[3Pal(6-Ph)][NMeC]-NH2 (thioether N-12) [Macrocyclic peptide of Example B9 (SEQ ID No. 33)],0.52 nM
8,{CH2CO}-[NMeK](SulfoCy5)[MeHseMe]D[NMeQ][Phe(4-COOH)]II[F4aao][NMeAla(isoquinolin-7-yl)]G[3Pal(6-Ph)][NMeC]-NH2 (thioether N-12) [Mod5],3.6 nM
9,{CH2CO}-[NMeK](SulfoCy5)[NMeI]D[NMeQ][Phe(4-COOH)][TMe]IY[NMeAla(isoquinolin-7-yl)]G[3Pal(6-Ph)][NMeC]-NH2 (thioether N-12) [Mod6],0.24 nM
10,"{CH2CO}-[NMeK]([PEG12-Biotin])[NMeI]D[NMeQ][Phe(4-COOH)]IIY[NMeAla(isoquinolin-7-yl)]G[3Pal(6-Ph)][NMeC]-NH2 (thioether N-12, Biotin conjugate) [PLB-1]",0.25 nM
